Data from patent US20210388087A1 (Chugai, published 2021).
Numbering of substitutions follows the chain as printed.

B1: CE115HA000 A99L (antibody, human IgG1, kappa, L234A L235A, N297A, name in Kabat numbering)
heavy: QVQLVESGGGVVQPGRSLRLSCAASGFTFSNAWMHWVRQAPGKGLEWVAQIKAKSNNYATYYAESVKGRFTISRDDSKNSLYLQMNSLKTEDTAVYYCRYVHYGLYYGVDAWGQGTTVTVSSASTKGPSVFPLAPSSKSTSGGTAALGCLVKDYFPEPVTVSWNSGALTSGVHTFPAVLQSSGLYSLSSVVTVPSSSLGTQTYICNVNHKPSNTKVDKKVEPKSCDKTHTCPPCPAPEAAGGPSVFLFPPKPKDTLMISRTPEVTCVVVDVSHEDPEVKFNWYVDGVEVHNAKTKPREEQYASTYRVVSVLTVLHQDWLNGKEYKCKVSNKALPAPIEKTISKAKGQPREPQVYTLPPSRCELTKNQVSLSCAVKGFYPSDIAVEWESNGQPENNYKTTPPVLDSDGSFFLVSKLTVDKSRWQQGNVFSCSVMHEALHNHYTQKSLSLSPDYKDDDDK
chain: EPKSSDKTHTCPPCPAPELLGGPSVFLFPPKPKDTLMISRTPEVTCVVVDVSHEDPEVKFNWYVDGVEVHNAKTKPREEQYNSTYRVVSVLTVLHQDWLNGKEYKCKVSNKALPAPIEKTISKAKGQPREPQVCTLPPSRDELTKNQVSLWCLVKGFYPSDIAVEWESNGQPENNYKTTPPVLDSDGSFFLYSKLTVDKSRWQQGNVFSCSVMHEALHNRYTQKSLSLSP
light: DIVMTQSPLSLPVTPGEPASISCRSSQSLVHSNRNTYLHWYQQKPGQAPRLLIYKVSNRFSGVPDRFSGSGSGTDFTLKISRVEAEDVGVYYCGQGTQVPYTFGQGTKLEIKRTVAAPSVFIFPPSDEQLKSGTASVVCLLNNFYPREAKVQWKVDNALQSGNSQESVTEQDSKDSTYSLSSTLTLSKADYEKHKVYACEVTHQGLSSPVTKSFNRGEC
notes: one-arm antibody
B2: CE115HA000 A99S (antibody, human IgG1, kappa, L234A L235A, N297A, name in Kabat numbering)
heavy: B1 heavy with L105S
chain: B1 chain
light: B1 light
notes: one-arm antibody
B3: CE115HA000 A99Y (antibody, human IgG1, kappa, L234A L235A, N297A, name in Kabat numbering)
heavy: B1 heavy with L105Y
chain: B1 chain
light: B1 light
notes: one-arm antibody
B4: CE115HA000 D72V (antibody, human IgG1, kappa, L234A L235A, N297A, name in Kabat numbering)
heavy: B1 heavy with D75V, L105A
chain: B1 chain
light: B1 light
notes: one-arm antibody
B5: CE115HA000 D73A (antibody, human IgG1, kappa, L234A L235A, N297A, name in Kabat numbering)
heavy: B1 heavy with D76A, L105A
chain: B1 chain
light: B1 light
notes: one-arm antibody
B6: CE115HA000 D73N (antibody, human IgG1, kappa, L234A L235A, N297A, name in Kabat numbering)
heavy: B1 heavy with D76N, L105A
chain: B1 chain
light: B1 light
notes: one-arm antibody
B7: CE115HA000 D73G (antibody, human IgG1, kappa, L234A L235A, N297A, name in Kabat numbering)
heavy: B1 heavy with D76G, L105A
chain: B1 chain
light: B1 light
notes: one-arm antibody
B8: CE115HA000 A102V (antibody, human IgG1, kappa, L234A L235A, N297A, name in Kabat numbering)
heavy: B1 heavy with L105A, A111V
chain: B1 chain
light: B1 light
notes: one-arm antibody
B9: CE115HA000 D72A (antibody, human IgG1, kappa, L234A L235A, N297A, name in Kabat numbering)
heavy: B1 heavy with D75A, L105A
chain: B1 chain
light: B1 light
notes: one-arm antibody
B10: CE115HA000 D101G (antibody, human IgG1, kappa, L234A L235A, N297A, name in Kabat numbering)
heavy: B1 heavy with L105A, D110G
chain: B1 chain
light: B1 light
notes: one-arm antibody
B11: CE115HA000 D101A (antibody)
heavy: B1 heavy with L105A, D110A
Fc: B1 chain
light: B1 light
notes: one-arm antibody
B12: CE115HA000 D73K (antibody, human IgG1, kappa, L234A L235A, N297A, name in Kabat numbering)
heavy: B1 heavy with D76K, L105A
chain: B1 chain
light: B1 light
notes: one-arm antibody
B13: CE115HA000 D101F (antibody, human IgG1, kappa, L234A L235A, N297A, name in Kabat numbering)
heavy: B1 heavy with L105A, D110F
chain: B1 chain
light: B1 light
notes: one-arm antibody
B14: CE115HA000 A102I (antibody, human IgG1, kappa, L234A L235A, N297A, name in Kabat numbering)
heavy: B1 heavy with L105A, A111I
chain: B1 chain
light: B1 light
notes: one-arm antibody
B15: CE115HA000 A99T (antibody, human IgG1, kappa, L234A L235A, N297A, name in Kabat numbering)
heavy: B1 heavy with L105T
chain: B1 chain
light: B1 light
notes: one-arm antibody
B16: CE115HA000 D101H (antibody, human IgG1, kappa, L234A L235A, N297A, name in Kabat numbering)
heavy: B1 heavy with L105A, D110H
chain: B1 chain
light: B1 light
notes: one-arm antibody
B17: CE115HA000 A102P (antibody, human IgG1, kappa, L234A L235A, N297A, name in Kabat numbering)
heavy: B1 heavy with L105A, A111P
chain: B1 chain
light: B1 light
notes: one-arm antibody
B18: CE115HA000 D73R (antibody, human IgG1, kappa, L234A L235A, N297A, name in Kabat numbering)
heavy: B1 heavy with D76R, L105A
chain: B1 chain
light: B1 light
notes: one-arm antibody
B19: CE115HA000 A99Q (antibody, human IgG1, kappa, L234A L235A, N297A, name in Kabat numbering)
heavy: B1 heavy with L105Q
chain: B1 chain
light: B1 light
notes: one-arm antibody
B20: CE115HA000 D72E (antibody, human IgG1, kappa, L234A L235A, N297A, name in Kabat numbering)
heavy: B1 heavy with D75E, L105A
chain: B1 chain
light: B1 light
notes: one-arm antibody
B21: CE115HA000 D73E (antibody, human IgG1, kappa, L234A L235A, N297A, name in Kabat numbering)
heavy: B1 heavy with D76E, L105A
chain: B1 chain
light: B1 light
notes: one-arm antibody
B22: CE115HA000 A102Y (antibody, human IgG1, kappa, L234A L235A, N297A, name in Kabat numbering)
heavy: B1 heavy with L105A, A111Y
chain: B1 chain
light: B1 light
notes: one-arm antibody
B23: CE115HA000 D73T (antibody, human IgG1, kappa, L234A L235A, N297A, name in Kabat numbering)
heavy: B1 heavy with D76T, L105A
chain: B1 chain
light: B1 light
notes: one-arm antibody

What follows are binders tested against T1, CD3 epsilon homodimer protein (UniProt P07766 23-126) (assay: SPR, CD3 epsilon homodimer on chip, one-arm antibody as analyte;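 also: surface plasmon resonance at 25 °C with CD3 epsilon homodimer amine-coupled to a CM4 sensor chip, antibody injected as analyte, HBS-EP+ as running buffer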).
T1 construct: also called CD3 (CD3 epsilon)
T1 sequence (P07766 23-126): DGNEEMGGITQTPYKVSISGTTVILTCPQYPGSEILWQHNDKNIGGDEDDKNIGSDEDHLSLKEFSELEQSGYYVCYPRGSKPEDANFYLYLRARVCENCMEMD
Procedure: An appropriate amount of CD3 epsilon homodimer protein was immobilized onto Sensor chip CM4 (GE Healthcare Japan Corp.) by the amine coupling method. Then, the antibody having an appropriate concentration was injected thereto as an analyte and allowed to interact with the CD3 epsilon homodimer protein on the sensor chip. Then, the sensor chip was regenerated by the injection of 10 mmol/L glycine-HCl (pH 1.5). The assay was conducted at 25 degrees C., and HBS-EP+(GE Healthcare Japan Corp.) was used as a running buffer. […] Each parameter was calculated using Biacore T200 Evaluation Software (GE Healthcare Japan Corp.).

| KD ratio (KD of CE115HA000/KD of altered form) | Binder |
| --- | --- |
| 1 | B1 |
| 0.76 | B2 |
| 1.25 | B3 |
| 1.17 | B4 |
| 0.73 | B5 |
| 0.7 | B6 |
| 0.78 | B7 |
| 1.27 | B8 |
| 1.19 | B9 |
| 3.16 | B10 |
| 0.86 | B11 |
| 0.74 | B12 |
| 0.73 | B13 |
| 1.29 | B14 |
| 0.93 | B15 |
| 0.91 | B16 |
| 3.51 | B17 |
| 0.79 | B18 |
| 0.85 | B19 |
| 0.73 | B20 |
| 0.56 | B21 |
| 1 | B22 |
| 0.78 | B23 |
